Source: PMC12151214

B1: GFP-HMGA1 (WT) [human] / mCherry-LacI-CHFR [human] (parent)
chain 1: MSESSSKSSQPLASKQEKDGTEKRGRGRPRKQPPVSPGTALVGSQKEPSEVPTPKRPRGRPKGSKNKGAAKTRKTTTTPGRKPRGRPKKLEKEEEEGISQESSEEEQ
chain 2: MERPEEGKQSPPPQPWGRLLRLGAEEGEPHVLLRKREWTIGRRRGCDLSFPSNKLVSGDHCRIVVDEKSGQVTLEDTSTSGTVINKLKVVKKQTCPLQTGDVIYLVYRKNEPEHNVAYLYESLSEKQGMTQESFEANKENVFHGTKDTSGAGAGRGADPRVPPSSPATQVCFEEPQPSTSTSDLFPTASASSTEPSPAGRERSSSCGSGGGGISPKGSGPSVASDEVSSFASALPDRKTASFSSLEPQDQEDLEPVKKKMRGDGDLDLNGQLLVAQPRRNAQTVHEDVRAAAGKPDKMEETLTCIICQDLLHDCVSLQPCMHTFCAACYSGWMERSSLCPTCRCPVERICKNHILNNLVEAYLIQHPDKSRSEEDVQSMDARNKITQDMLQPKVRRSFSDEEGSSEDLLELSDVDSESSDISQPYVVCRQCPEYRRQAAQPPHCPAPEGEPGAPQALGDAPSTSVSLTTAVQDYVCPLQGSHALCTCCFQPMPDRRAEREQDPRVAPQQCAVCLQPFCHLYWGCTRTGCYGCLAPFCELNLGDKCLDGVLNNNSYESDILKNYLATRGLTWKNMLTESLVALQRGVFLLSDYRVTGDTVLCYCCGLRSFRELTYQYRQNIPASELPVAVTSRPDCYWGRNCRTQVKAHHAMKFNHICEQTRFKN

Variants of: B1
Assay: LacI-LacO fluorescence colocalization assay (GFP-HMGA1 foci intensity at LacO array, ImageJ)
Settings: with mCherry-LacI-CHFR [human]; U2OS-265 cells cotransfected for 24 h; parent: 1.5; read off a plot

response | Variant
1 | chain 1 MSESSSKSSQPLASKQEKDGTEKRGRGRPRKQPPVSPGTALVGSQKEPSQVPTPKRPRGRPKGSKNKGAAKTRKTTTTPGRKPRGRPKKLEKEEEEGISQESSEEEQ [chain 1 E50Q]
